Target: UBR5 (UniProt O95071)
Assay: co-IP and immunoblot, transfected cells
Settings: reference: ACSL4 wild type; sites S447

binding against the reference: lost
Substance: ACSL4 (from UniProt O60488) ACSL4 S447A
